These results are taken from patent US20240400618A1 (GRIFOLS DIAGNOSTIC SOLUTIONS, published 2024).

Read-outs that look alike come from different tables or passages of the source.

Assay [1] deals with T1, pxENB17-RBD-His (SARS-CoV-2, UniProt P0DTC2 319-541).
For assay [2], the target named is T2, pxENB9-FLS-CT-His (SARS-CoV-2, UniProt P0DTC2 15-1213).
For assay [3], the target named is T2, pxENB9-FLS-CT-His. This is another data set of the same source.
Assay [4] has as its target T1, pxENB17-RBD-His. This is another data set of the same source.
In assay [5] the target is T1, pxENB17-RBD-His. Description: BLI (Octet), ACE2 construct loaded on SA tips by its tag, RBD as analyte. For orientation: Biolayer interferometry detects binding as a change in optical thickness at a sensor tip.

B1: pxEBNCP9_hIL2-hACE2(18-615) (receptor)
chain: QSTIEEQAKTFLDKFNHEAEDLFYQSSLASWNYNTNITEENVQNMNNAGDKWSAFLKEQSTLAQMYPLQEIQNLTVKLQLQALQQNGSSVLSEDKSKRLNTILNTMSTIYSTGKVCNPDAPAECLLLEPGLNEIMANSLDYNERLWAWESWRSEVGKALRPLYEEYVVLKNEMARANHYEDYGDYWRGDYEVNGVDGYDYSRGQLIEDVEHTFEEIKPLYEHLHAYVRAKLMNAYPSYISPIGCLPAHLLGDMWGRFWTNLYSLTVPFGQKPNIDVTDAMVDQAWDAQRIFKEAEKFFVSVGLPNMTQGFWENSMLTDPGNVQKAVCHPTAWDLGKGDFRILMCTKVTMDDFLTAHHEMGHIQYDMAYAAQPFLLRNGANEGFHEAVGEIMSLSAATPKHLKSIGLLSPDFQEDNETEINFLLKQALTIVGTLPFTYMLEKWRWMVFKGEIPKDQWMKKWWEMKREIVGVVEPVPHDETYCDPASLFHVSNDYSFIRYYTRTLYQFQFQEALCQAAKHEGPLHKCDISNSTEAGQKLFNMLRLGKSEPWTLALENVVGAKNMNVRPLLNYFEPLFTWLKDQNKNSFVGWSTDWSPYAD
On to B1, for which the Kd in assay [1] was 45.1 nM.

B2: pxEBNCP19_mIgGHC_hACE2-3A (receptor)
chain: QSTIEEQAKTFLDKFNHEAEDLFYQSSLASWNYNTNITEENVQNMNNAGDKWSAFLKEQSTLAQMYPLQEIQNLTVKLQLQALQQNGSSVLSEDKSKRLNTILNTMSTIYSTGKVCNPDAPAECLLLEPGLNEIMANSLDYNERLWAWESWRSEVGKALRPLYEEYVVLKNEMARANHYEDYGDYWRGDYEVNGVDGYDYSRGQLIEDVEHTFEEIKPLYEHLHAYVRAKLMNAYPSYISPIGCLPAHLLGDMWGRFWTNLYSLTVPFGQKPNIDVTDAMVDQAWDAQRIFKEAEKFFVSVGLPNMTQGFWENSMLTDPGNVQKAVCHPTAWDLGKGDFRILMCTKVTMDDFLTAHHEMGHIQYDMAYAAQPFLLRNGANEGFHEAVGEIMSLSAATPKHLKSIGLLSPDFQEDNETEINFLLKQALTIVGTLPFTYMLEKWRWMVFKGEIPKDQWMKKWWEMKREIVGVVEPVPHDETYCDPASLFHVSNDYSFIRYYTRTLYQFQFQEALCQAAKHEGPLHKCDISNSTEAGQKLFNMLRLGKSEPWTLALENVVGAKNMNVRPLLNYFEPLFTWLKDQNKNSFVGWSTDWSPYAD
In the case of B2, the Kd in assay [1] amounted to 56.2 nM.

B3: pxEBNCP10_tPa-hACE2(18-615)-AAA (receptor)
chain: QSTIEEQAKTFLDKFNHEAEDLFYQSSLASWNYNTNITEENVQNMNNAGDKWSAFLKEQSTLAQMYPLQEIQNLTVKLQLQALQQNGSSVLSEDKSKRLNTILNTMSTIYSTGKVCNPDAPAECLLLEPGLNEIMANSLDYNERLWAWESWRSEVGKALRPLYEEYVVLKNEMARANHYEDYGDYWRGDYEVNGVDGYDYSRGQLIEDVEHTFEEIKPLYEHLHAYVRAKLMNAYPSYISPIGCLPAHLLGDMWGRFWTNLYSLTVPFGQKPNIDVTDAMVDQAWDAQRIFKEAEKFFVSVGLPNMTQGFWENSMLTDPGNVQKAVCHPTAWDLGKGDFRILMCTKVTMDDFLTAHHEMGHIQYDMAYAAQPFLLRNGANEGFHEAVGEIMSLSAATPKHLKSIGLLSPDFQEDNETEINFLLKQALTIVGTLPFTYMLEKWRWMVFKGEIPKDQWMKKWWEMKREIVGVVEPVPHDETYCDPASLFHVSNDYSFIRYYTRTLYQFQFQEALCQAAKHEGPLHKCDISNSTEAGQKLFNMLRLGKSEPWTLALENVVGAKNMNVRPLLNYFEPLFTWLKDQNKNSFVGWSTDWSPYAD
In assay [1], B3 gave a Kd of 60.8 nM.

B4: pxEBNCP25_hACE2-AAA(1-615) (receptor)
chain: QSTIEEQAKTFLDKFNHEAEDLFYQSSLASWNYNTNITEENVQNMNNAGDKWSAFLKEQSTLAQMYPLQEIQNLTVKLQLQALQQNGSSVLSEDKSKRLNTILNTMSTIYSTGKVCNPDAPAECLLLEPGLNEIMANSLDYNERLWAWESWRSEVGKALRPLYEEYVVLKNEMARANHYEDYGDYWRGDYEVNGVDGYDYSRGQLIEDVEHTFEEIKPLYEHLHAYVRAKLMNAYPSYISPIGCLPAHLLGDMWGRFWTNLYSLTVPFGQKPNIDVTDAMVDQAWDAQRIFKEAEKFFVSVGLPNMTQGFWENSMLTDPGNVQKAVCHPTAWDLGKGDFRILMCTKVTMDDFLTAHHEMGHIQYDMAYAAQPFLLRNGANEGFHEAVGEIMSLSAATPKHLKSIGLLSPDFQEDNETEINFLLKQALTIVGTLPFTYMLEKWRWMVFKGEIPKDQWMKKWWEMKREIVGVVEPVPHDETYCDPASLFHVSNDYSFIRYYTRTLYQFQFQEALCQAAKHEGPLHKCDISNSTEAGQKLFNMLRLGKSEPWTLALENVVGAKNMNVRPLLNYFEPLFTWLKDQNKNSFVGWSTDWSPYAD
As to B4, the Kd in assay [1] is 73.3 nM.

B5: pxEBNCP18_hACE2-AAA_p53 (receptor)
chain: QSTIEEQAKTFLDKFNHEAEDLFYQSSLASWNYNTNITEENVQNMNNAGDKWSAFLKEQSTLAQMYPLQEIQNLTVKLQLQALQQNGSSVLSEDKSKRLNTILNTMSTIYSTGKVCNPDAPAECLLLEPGLNEIMANSLDYNERLWAWESWRSEVGKALRPLYEEYVVLKNEMARANHYEDYGDYWRGDYEVNGVDGYDYSRGQLIEDVEHTFEEIKPLYEHLHAYVRAKLMNAYPSYISPIGCLPAHLLGDMWGRFWTNLYSLTVPFGQKPNIDVTDAMVDQAWDAQRIFKEAEKFFVSVGLPNMTQGFWENSMLTDPGNVQKAVCHPTAWDLGKGDFRILMCTKVTMDDFLTAHHEMGHIQYDMAYAAQPFLLRNGANEGFHEAVGEIMSLSAATPKHLKSIGLLSPDFQEDNETEINFLLKQALTIVGTLPFTYMLEKWRWMVFKGEIPKDQWMKKWWEMKREIVGVVEPVPHDETYCDPASLFHVSNDYSFIRYYTRTLYQFQFQEALCQAAKHEGPLHKCDISNSTEAGQKLFNMLRLGKSEPWTLALENVVGAKNMNVRPLLNYFEPLFTWLKDQNKNSFVGWSTDWSPYADGGGSKPLDGEYFTLQIRGRERFEMFRELNEALELKDAQAGKEPG
With B5, the Kd in assay [1] and in assay [2] was 0.001 nM throughout.

B6: pxEBNCP22_hACE2_3A-mIgG(h23) (Fc fusion)
chain: QSTIEEQAKTFLDKFNHEAEDLFYQSSLASWNYNTNITEENVQNMNNAGDKWSAFLKEQSTLAQMYPLQEIQNLTVKLQLQALQQNGSSVLSEDKSKRLNTILNTMSTIYSTGKVCNPDAPAECLLLEPGLNEIMANSLDYNERLWAWESWRSEVGKALRPLYEEYVVLKNEMARANHYEDYGDYWRGDYEVNGVDGYDYSRGQLIEDVEHTFEEIKPLYEHLHAYVRAKLMNAYPSYISPIGCLPAHLLGDMWGRFWTNLYSLTVPFGQKPNIDVTDAMVDQAWDAQRIFKEAEKFFVSVGLPNMTQGFWENSMLTDPGNVQKAVCHPTAWDLGKGDFRILMCTKVTMDDFLTAHHEMGHIQYDMAYAAQPFLLRNGANEGFHEAVGEIMSLSAATPKHLKSIGLLSPDFQEDNETEINFLLKQALTIVGTLPFTYMLEKWRWMVFKGEIPKDQWMKKWWEMKREIVGVVEPVPHDETYCDPASLFHVSNDYSFIRYYTRTLYQFQFQEALCQAAKHEGPLHKCDISNSTEAGQKLFNMLRLGKSEPWTLALENVVGAKNMNVRPLLNYFEPLFTWLKDQNKNSFVGWSTDWSPYADVPRDCGCKPCICTVPEVSSVFIFPPKPKDVLTITLTPKVTCVVVDISKDDPEVQFSWFVDDVEVHTAQTQPREEQFNSTFRSVSELPIMHQDWLNGKEFKCRVNSAAFPAPIEKTISKTKGRPKAPQVYTIPPPKEQMAKDKVSLTCMITDFFPEDITVEWQWNGQPAENYKNTQPIMNTNGSYFVYSKLNVQKSNWEAGNTFTCSVLHEGLHNHHTEKSLSHSPGK
B6: the Kd came to 0.953 nM in assay [1] and 0.001 nM in assay [2].

B7: pxENBCP23_hACE2_3A-mIgG(23) (Fc fusion)
chain: QSTIEEQAKTFLDKFNHEAEDLFYQSSLASWNYNTNITEENVQNMNNAGDKWSAFLKEQSTLAQMYPLQEIQNLTVKLQLQALQQNGSSVLSEDKSKRLNTILNTMSTIYSTGKVCNPDAPAECLLLEPGLNEIMANSLDYNERLWAWESWRSEVGKALRPLYEEYVVLKNEMARANHYEDYGDYWRGDYEVNGVDGYDYSRGQLIEDVEHTFEEIKPLYEHLHAYVRAKLMNAYPSYISPIGCLPAHLLGDMWGRFWTNLYSLTVPFGQKPNIDVTDAMVDQAWDAQRIFKEAEKFFVSVGLPNMTQGFWENSMLTDPGNVQKAVCHPTAWDLGKGDFRILMCTKVTMDDFLTAHHEMGHIQYDMAYAAQPFLLRNGANEGFHEAVGEIMSLSAATPKHLKSIGLLSPDFQEDNETEINFLLKQALTIVGTLPFTYMLEKWRWMVFKGEIPKDQWMKKWWEMKREIVGVVEPVPHDETYCDPASLFHVSNDYSFIRYYTRTLYQFQFQEALCQAAKHEGPLHKCDISNSTEAGQKLFNMLRLGKSEPWTLALENVVGAKNMNVRPLLNYFEPLFTWLKDQNKNSFVGWSTDWSPYADVPEVSSVFIFPPKPKDVLTITLTPKVTCVVVDISKDDPEVQFSWFVDDVEVHTAQTQPREEQFNSTFRSVSELPIMHQDWLNGKEFKCRVNSAAFPAPIEKTISKTKGRPKAPQVYTIPPPKEQMAKDKVSLTCMITDFFPEDITVEWQWNGQPAENYKNTQPIMNTNGSYFVYSKLNVQKSNWEAGNTFTCSVLHEGLHNHHTEKSLSHSPGK
On to B7, for which the Kd in assay [1] came out at 24.5 nM; in assay [2] it was 38.7 nM.

B8: pxEBNCP15_hACE2-AAA-StrepTagII (receptor)
chain: QSTIEEQAKTFLDKFNHEAEDLFYQSSLASWNYNTNITEENVQNMNNAGDKWSAFLKEQSTLAQMYPLQEIQNLTVKLQLQALQQNGSSVLSEDKSKRLNTILNTMSTIYSTGKVCNPDAPAECLLLEPGLNEIMANSLDYNERLWAWESWRSEVGKALRPLYEEYVVLKNEMARANHYEDYGDYWRGDYEVNGVDGYDYSRGQLIEDVEHTFEEIKPLYEHLHAYVRAKLMNAYPSYISPIGCLPAHLLGDMWGRFWTNLYSLTVPFGQKPNIDVTDAMVDQAWDAQRIFKEAEKFFVSVGLPNMTQGFWENSMLTDPGNVQKAVCHPTAWDLGKGDFRILMCTKVTMDDFLTAHHEMGHIQYDMAYAAQPFLLRNGANEGFHEAVGEIMSLSAATPKHLKSIGLLSPDFQEDNETEINFLLKQALTIVGTLPFTYMLEKWRWMVFKGEIPKDQWMKKWWEMKREIVGVVEPVPHDETYCDPASLFHVSNDYSFIRYYTRTLYQFQFQEALCQAAKHEGPLHKCDISNSTEAGQKLFNMLRLGKSEPWTLALENVVGAKNMNVRPLLNYFEPLFTWLKDQNKNSFVGWSTDWSPYADGGSGWSHPQFEK
Consider B8, for which the Kd in assay [3] was 4710 nM; in assay [4], 110 nM. The “Response, shift in Wavelength (nm)” value in assay [5] came out at 0.0062 nm.

For orientation: Kd means the concentration at which binding is half-saturated. Low values mean a tighter complex, high ones a looser complex.
